US20100310590A1
Residue numbers refer to the chain shown, from its start.

B1: SEQ ID NO:4 (protein)
chain: MSWQTYVDEHLMCDIDGQASNSLASAIVGHDGSVWAQSSSFPQFKPQEITGIMKDFEEPGHLAPTGLHLGGIKYMVIQGEAGAVIRGGEGSGGITIKKTGQALVFGIYEEPVTPGQCNMVVERLGDYLIDQGL
B2: SEQ ID NO:2 (protein)
chain: B1 chain with S39A, G88K, E89K
B3: SEQ ID NO:3 (protein)
chain: B1 chain with K45T, G88K, E89K
B4: wild-type Bet v 2 allergen (SEQ ID NO:1) (protein)
chain: B1 chain with G88K, E89K
B5: SEQ ID NO:6 (protein)
chain: B1 chain with S39A

Molecular target: IgEs from a serum pool of patients allergic to birch pollen (RAST 3+ and 4+ to Bet v 2) (human)
Assay: REAST inhibition: serum pool pre-incubated with inhibitor, IgE captured on anti-IgE plate, biotinylated Bet v 2 detection

Row | percent inhibition of Bet v 2 wt binding to IgE at 1.45 ng inhibitor [%] | Binder
1 | 13.4 | B1
2 | 40.4 | B2
3 | 71 | B3
4 | 82.6 | B4
5 | 8.8 | B5
